Measured values as given in patent US20200247894A1.
Read-outs that look alike come from different tables or passages of the source. Blank lines part the entries; values can stand above or below the substance they belong to.

How the values were obtained:
[1] = molecular target: human IL-2Rγ endogenously expressed on NK-92 and Jurkat cells (human) (UniProt P31785); test: flow cytometry, 10 ug/ml isotype control, NK-92 cells (endogenous human IL-2Rg)
[2] = molecular target: human IL-2Rγ expressed on cells (human) (UniProt P31785); test: flow cytometry, isotype control at 10 µg/ml, MFI over unstained; upper end (NK-92 by Table 9-1)
[3] = molecular target: human IL-2Rγ expressed on cells (human) (UniProt P31785); test: flow cytometry on NK-92 cells, isotype control at 10 µg/ml, MFI over unstained; the end 2 belongs to HEK293 (negative control cells) by Table 9-2
[4] = molecular target: mouse IL-2Rγ endogenously expressed on MC/9 cells (mouse) (UniProt P34902); test: flow cytometry, 10 ug/ml isotype control, MC/9 cells (endogenous mouse IL-2Rg)
[5] = molecular target: human IL-2Rγ expressed on cells (human) (UniProt P31785); test: flow cytometry, isotype control at 10 µg/ml, MFI over unstained; lower end (Jurkat by Table 9-1)
[6] = molecular target: human IL-2Rγ endogenously expressed on NK-92 and Jurkat cells (human) (UniProt P31785); test: flow cytometry, 10 ug/ml isotype control, Jurkat cells (endogenous human IL-2Rg)
[7] = molecular target: human IL-2Rγ endogenously expressed on NK-92 and Jurkat cells (human) (UniProt P31785); test: flow cytometry, 10 ug/ml isotype control, NK-92 cells (endogenous human IL-2Rg); remark: listed apart in the source
[8] = molecular target: human IL-2Rγ endogenously expressed on NK-92 and Jurkat cells (human) (UniProt P31785); test: flow cytometry, secondary antibody alone (no primary), NK-92 cells (endogenous human IL-2Rg)
[9] = molecular target: human IL-2Rγ endogenously expressed on NK-92 and Jurkat cells (human) (UniProt P31785); test: flow cytometry, secondary antibody alone (no primary), Jurkat cells (endogenous human IL-2Rg)
[10] = molecular target: mouse IL-2Rγ endogenously expressed on MC/9 cells (mouse) (UniProt P34902); test: flow cytometry, secondary antibody alone (no primary), MC/9 cells (endogenous mouse IL-2Rg)
[11] = molecular target: human IL-2Rγ endogenously expressed on NK-92 and Jurkat cells (human) (UniProt P31785); test: flow cytometry, secondary antibody alone (no primary), NK-92 cells (endogenous human IL-2Rg); remark: listed apart in the source
[12] = molecular target: human IL2Rγ (endogenously expressed on cells) (human) (UniProt P31785); test: cell-based or functional assay
[13] = molecular target: human IL2Rγ (endogenously expressed on cells) (human) (UniProt P31785); test: cell-based or functional assay; remark: listed apart in the source

Chain of human IL2Rγ (endogenously expressed on cells) (human) (P31785 23-369): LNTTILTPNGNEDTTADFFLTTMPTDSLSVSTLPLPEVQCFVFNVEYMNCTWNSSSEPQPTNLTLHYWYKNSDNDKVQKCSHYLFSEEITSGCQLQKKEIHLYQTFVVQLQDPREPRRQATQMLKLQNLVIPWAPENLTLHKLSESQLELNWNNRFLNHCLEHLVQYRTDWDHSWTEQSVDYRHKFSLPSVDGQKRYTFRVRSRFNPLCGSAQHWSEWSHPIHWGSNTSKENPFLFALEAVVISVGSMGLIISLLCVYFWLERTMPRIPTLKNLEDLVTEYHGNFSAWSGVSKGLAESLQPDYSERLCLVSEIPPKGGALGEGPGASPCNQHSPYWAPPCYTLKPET
Chain of human IL-2Rγ endogenously expressed on NK-92 and Jurkat cells (human) (P31785 23-369): as above
Chain of human IL-2Rγ expressed on cells (human) (P31785 23-369): as above
Chain of mouse IL-2Rγ endogenously expressed on MC/9 cells (mouse) (P34902 23-369): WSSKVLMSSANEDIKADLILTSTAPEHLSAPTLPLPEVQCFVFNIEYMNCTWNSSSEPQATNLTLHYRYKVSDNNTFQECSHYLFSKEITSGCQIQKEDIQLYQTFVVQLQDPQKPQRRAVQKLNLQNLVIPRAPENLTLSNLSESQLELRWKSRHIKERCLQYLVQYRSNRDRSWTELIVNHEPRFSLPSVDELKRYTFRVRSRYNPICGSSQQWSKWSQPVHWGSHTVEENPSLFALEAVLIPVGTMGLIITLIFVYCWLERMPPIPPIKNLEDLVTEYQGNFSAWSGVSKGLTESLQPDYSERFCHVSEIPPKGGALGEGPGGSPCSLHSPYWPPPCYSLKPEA

Binding Ratio (Sample over unstained MFIs) [1]: 13
Raw MFI [1]: 1890 MFI
binding ratio [2]: 13
binding ratio [3]: 1
Binding Ratio (Sample over unstained MFIs) [4]: 1
Raw MFI [4]: 196 MFI
binding ratio [5]: 1
Binding Ratio (Sample over unstained MFIs) [6]: 1
Raw MFI [6]: 92 MFI
Binding Ratio (Sample over unstained MFIs) [7]: 1
Raw MFI [7]: 223 MFI
Substance: REGN1945 (antibody)

Raw MFI [8]: 234 MFI
Binding Ratio (Sample over unstained MFIs) [9]: 1
Raw MFI [9]: 80 MFI
Binding Ratio (Sample over unstained MFIs) [10]: 1
Raw MFI [10]: 173 MFI
Binding Ratio (Sample over unstained MFIs) [11]: 1
Raw MFI [11]: 210 MFI
Substance: anti-human antibody conjugated to allophycocyanin (APC) (Jackson ImmunoResearch, #109-136-170)

EC50; IL-2 dose response; NK92/hIL7R/STAT3-luc [12]: 45 pM
EC50; IL-2 dose response; NK92/hIL7R/STAT3-luc [13]: 33 pM
Substance: human IL-2 (from UniProt P60568 21-153) (ligand)

EC50; IL-9 dose response; NK92/hIL7R/STAT3-luc [12]: 33 pM
EC50; IL-9 dose response; NK92/hIL7R/STAT3-luc [13]: 20 pM
Substance: human IL-9 (from UniProt P15248 19-144) (ligand)

EC50; IL-15 dose response; NK92/hIL7R/STAT3-luc [12]: 230 pM
EC50; IL-15 dose response; NK92/hIL7R/STAT3-luc [13]: 150 pM
Substance: human IL-15 (from UniProt P40933 49-162) (ligand)

EC50; IL-21 dose response; NK92/hIL7R/STAT3-luc [12]: 6 pM
EC50; IL-21 dose response; NK92/hIL7R/STAT3-luc [13]: 3.1 pM
Substance: human IL-21 (from UniProt Q9HBE4 32-162) (ligand)
